This is an account of results in PMC10720265.

Common to all, as to assay: MYC IP followed by mass spectrometry (IP-MS)
Holding throughout (settings): three biological replicates; HeLa cell lysates; signals normalized to bait protein levels; read off a plot

Test [1] has as its target NCBP2, CBC component, endogenous in HeLa cells (UniProt P52298).
Test [2] concerns the target ARS2, endogenous in HeLa cells.
Test [3] addresses NCBP1, CBC component, endogenous in HeLa cells (UniProt Q09161).
Sequence of UniProt Q09161 (Q09161 whole entry): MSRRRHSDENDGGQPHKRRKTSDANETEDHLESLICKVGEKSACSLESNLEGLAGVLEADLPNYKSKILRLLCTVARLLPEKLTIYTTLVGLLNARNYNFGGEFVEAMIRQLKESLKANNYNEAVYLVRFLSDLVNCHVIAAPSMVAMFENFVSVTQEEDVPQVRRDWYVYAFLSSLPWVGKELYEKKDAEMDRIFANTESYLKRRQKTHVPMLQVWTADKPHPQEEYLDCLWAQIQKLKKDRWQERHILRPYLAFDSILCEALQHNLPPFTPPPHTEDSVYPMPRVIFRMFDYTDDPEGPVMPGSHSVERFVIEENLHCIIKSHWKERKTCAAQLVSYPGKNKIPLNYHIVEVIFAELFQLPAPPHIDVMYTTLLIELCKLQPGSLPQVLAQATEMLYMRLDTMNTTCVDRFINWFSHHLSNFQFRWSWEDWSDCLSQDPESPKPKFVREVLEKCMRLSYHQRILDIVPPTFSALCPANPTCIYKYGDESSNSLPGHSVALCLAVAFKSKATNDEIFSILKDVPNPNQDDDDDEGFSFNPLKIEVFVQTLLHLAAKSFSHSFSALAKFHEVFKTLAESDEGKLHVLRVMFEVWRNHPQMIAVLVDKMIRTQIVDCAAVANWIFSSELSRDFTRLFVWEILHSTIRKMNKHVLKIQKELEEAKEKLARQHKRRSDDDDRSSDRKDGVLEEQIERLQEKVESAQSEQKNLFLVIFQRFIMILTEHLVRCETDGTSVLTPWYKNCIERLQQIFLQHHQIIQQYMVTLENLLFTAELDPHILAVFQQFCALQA

Sequence of UniProt P52298 (P52298 whole entry): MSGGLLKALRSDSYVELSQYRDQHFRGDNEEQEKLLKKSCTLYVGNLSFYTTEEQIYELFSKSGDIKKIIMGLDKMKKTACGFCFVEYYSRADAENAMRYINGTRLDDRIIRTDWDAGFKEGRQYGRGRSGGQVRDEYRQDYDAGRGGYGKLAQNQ

“Z1^1-209(WT), MYC-tagged N-terminal fragment of human ZFC3H1 (from UniProt O60293) … -> … (E->A; E->A; D->A; E->A; residue numbers not printed)”: the values for the other: log2 fold change (Z1 1-209(WT)/Z1 1-209(MUT)) in test [1], in test [2] and in test [3] were 1.8 log2, 6.9 log2 and 2.1 log2, respectively.
